Test results reported in patent publication US20200140566A1 (CLEVELAND CLINIC FOUNDATION, published 2020).
Values joined by “and” are separate entries in the source; they are usually repeats but may differ in a detail not shown here. Equal entries are not always repeated.

T1: CD6 on Jurkat cells (human, UniProt P30203 18-668)
T1 construct: whole, on cells; the target is inferred from the antibodies' specificity
T1 sequence (looked up): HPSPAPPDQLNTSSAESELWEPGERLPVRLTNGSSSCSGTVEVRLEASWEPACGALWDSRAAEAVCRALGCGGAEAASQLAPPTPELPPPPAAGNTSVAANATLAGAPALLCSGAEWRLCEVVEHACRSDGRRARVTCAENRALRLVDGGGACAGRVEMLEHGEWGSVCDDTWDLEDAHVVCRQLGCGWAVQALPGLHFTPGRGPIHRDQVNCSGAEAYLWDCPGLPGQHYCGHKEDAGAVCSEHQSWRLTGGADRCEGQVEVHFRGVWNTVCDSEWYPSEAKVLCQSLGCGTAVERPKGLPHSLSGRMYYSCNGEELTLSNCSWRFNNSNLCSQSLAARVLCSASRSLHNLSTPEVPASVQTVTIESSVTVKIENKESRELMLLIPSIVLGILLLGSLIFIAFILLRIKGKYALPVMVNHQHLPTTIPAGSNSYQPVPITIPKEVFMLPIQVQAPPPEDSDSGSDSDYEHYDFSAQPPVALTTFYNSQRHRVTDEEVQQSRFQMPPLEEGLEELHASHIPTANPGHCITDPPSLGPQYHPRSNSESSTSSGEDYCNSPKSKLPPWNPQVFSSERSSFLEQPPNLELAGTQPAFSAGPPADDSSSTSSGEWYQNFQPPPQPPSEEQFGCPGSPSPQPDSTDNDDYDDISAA

T2: rhCD6-Fc (human, UniProt P30203 25-398, limits assumed)
T2 construct: also called rhCD6-Fc chimera; antigen rhCD6-Fc; not shown: Fc part
T2 sequence (looked up): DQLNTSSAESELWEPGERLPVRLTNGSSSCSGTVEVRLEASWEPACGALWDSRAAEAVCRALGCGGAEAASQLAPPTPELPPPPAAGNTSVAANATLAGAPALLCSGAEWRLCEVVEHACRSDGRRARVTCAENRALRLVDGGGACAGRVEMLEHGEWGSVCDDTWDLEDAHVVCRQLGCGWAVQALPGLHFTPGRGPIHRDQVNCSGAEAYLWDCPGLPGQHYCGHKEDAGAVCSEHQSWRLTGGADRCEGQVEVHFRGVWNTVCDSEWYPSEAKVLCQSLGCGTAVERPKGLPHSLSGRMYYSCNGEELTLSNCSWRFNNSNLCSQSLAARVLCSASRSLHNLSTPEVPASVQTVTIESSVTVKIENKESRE


Legend:
CD6 on Jurkat cells [1] = target: T1, CD6 on Jurkat cells; assay: flow cytometry on Jurkat cells, antibody at 16 pM
Protocol: (§1) Flow cytometric analysis was performed using the purified antibodies. Jurkat cells were grown to 70-80% confluence and harvested by centrifuge. About 4×10⁵ cells per well were washed with PBS twice. 200 μl of the culture supernatant was added to the cells and incubated at room temperature for 1 hour. After washing with PBS, antibody was added to the cells for the detection of bound humanized IgG. After 30 minutes incubation, the cells were washed twice with PBS and resuspended in PBS. Cells were analyzed for IgG binding by using FACS Calibur (BD Bioscience, San Jose, Calif.) and Flowjo software. The IC₅₀ was analyzed by GraphPad Prism.
(§2) The FACS binding assay was also performed for validation of the Jurkat cell/humanized antibody interaction. Three humanized antibodies show almost equal Jurkat cell binding activity as parent antibody.

CD6 on Jurkat cells [2] = target: T1, CD6 on Jurkat cells; assay: flow cytometry on Jurkat cells, antibody at 80 pM
Protocol: as §1, §2

CD6 on Jurkat cells [3] = target: T1, CD6 on Jurkat cells; assay: flow cytometry on Jurkat cells, antibody at 3.2 pM
Protocol: as §1, §2

CD6 on Jurkat cells [4] = target: T1, CD6 on Jurkat cells; assay: flow cytometry on Jurkat cells, antibody at 400 pM
Protocol: as §1, §2

CD6 on Jurkat cells [5] = target: T1, CD6 on Jurkat cells; assay: flow cytometry on Jurkat cells, antibody at 2000 pM
Protocol: as §1, §2

CD6 on Jurkat cells [6] = target: T1, CD6 on Jurkat cells; assay: flow cytometry on Jurkat cells, antibody at 10000 pM
Protocol: as §1, §2

CD6 on Jurkat cells [7] = target: T1, CD6 on Jurkat cells; assay: flow cytometry on Jurkat cells, antibody at 0 pM (background)
Protocol: as §1, §2

rhCD6-Fc [8] = target: T2, rhCD6-Fc; assay: SPR (BIAcore T200, 25 C), rhCD6-Fc immobilised on CM5, IgG injected, apparent KD = kd/ka
Protocol: (§3) IgG antibodies were injected through flow cells at a flow rate of 30 μl/min with the concentration ranging from 0.11-27 nM (three-fold serial dilution). Association time was 700 s followed by 3600 s dissociation. At the end of each cycle, sensor surface was regenerated with 10 mM Glycine-HCl, pH 2.0 (100 μl/min, 12 s for 3 times). Responses of reference flow cell and buffer-only injection were double-subtracted from rhCD6-Fcflow cell during each antigen injection cycle. The data of dissociation (kd) and association (ka) rate constants were obtained by fitting binding data to 1:1 binding model using Biacore T200 evaluation software. The apparent equilibrium dissociation constants (KD) were calculated from the ratio of kd over ka.
(§4) Affinity analysis of antigen-antibody interaction. Binding data of each antibody was processed and fitted to 1:1 binding model using Biacore T200 evaluation software. All experiment data could be perfectly fitted to the model (FIG. 14).

CD6 on Jurkat cells [9] = target: T1, CD6 on Jurkat cells; assay: flow cytometry titration of direct binding on Jurkat cells (the filing calls the midpoint IC50), GraphPad Prism
Protocol: as §1, §2

rhCD6-Fc [10] = target: T2, rhCD6-Fc; assay: SPR (BIAcore T200, 25 C), rhCD6-Fc immobilised on CM5, IgG injected 0.11-27 nM, 1:1 fit; column head misprinted 'Kd (1/Ms)'
Protocol: as §3, §4

rhCD6-Fc [11] = target: T2, rhCD6-Fc; assay: SPR (BIAcore T200), Fab-SASA from culture medium captured on immobilised BSA, rhCD6-Fc injected, 1:1 fit of off-rate
Protocol: BSA was immobilized onto the sensor chip using amine coupling method. The selected Fab-SASA clones secreted to the culture medium were injected and captured by BSA via SASA (capture phase). After equilibration, antigen rhCD6-Fc was injected for 240 seconds (association phase) followed by the injection of running buffer for 720 seconds (dissociation phase). The surface was regenerated before the injection of another three Fab-SASA clones. The process was repeated until all antibodies were analyzed. Responses of reference flow cell were subtracted from those of Fab-SASA flow cells during each cycle. The binding curves of Fab-SASA clones were aligned at the start of association and normalized at 20 seconds after the stop of antigen injection using the BIAcore T200 evaluation software in order to display a more visualized comparison of antibodies. The off-rates of Fab-SASA clones were obtained from fitting the experimental data locally to 1:1 binding model. The antibodies were ranked by their dissociation rate constants Single cycle kinetics measurement was performed to verify the affinity ranking result. The selected Fab-SASA clones secreted to the culture medium were injected and captured by BSA via SASA (capture phase). After equilibration, a series of concentrations of antigen rhCD6-Fc (1, 3, 9, 27 and 81 nM) were injected for 500 seconds (association phase) followed by the injection of running buffer for 3000 seconds (dissociation phase). The surface was regenerated before another injection of Fab-SASA clones. Responses of reference flow cell and buffer-only injection were double-subtracted from those of Fab-SASA flow cells during each antigen injection cycle. The binding data were fitted to 1:1 binding model using the BIAcore T200 evaluation software.
Five back-mutation clones were constructed based on sequence of Fab2 and homology modeling. Each of DNA sequence encoding the five Fab fragments was inserted into pFASEBA vector for screening of the lead antibodies. The five clones along with Fab2 were screened against rhCD6-Fc for binding test and subsequent off-rate analysis by the BIAcore T200. Three clones were selected for IgG production and characterization due to the low dissociation rate using the BIAcore T200 evaluation software (Table 3).

Binder	MFI (CD6 on Jurkat cells [1])	MFI (CD6 on Jurkat cells [2])	MFI (CD6 on Jurkat cells [3])	MFI (CD6 on Jurkat cells [4])	MFI (CD6 on Jurkat cells [5])	MFI (CD6 on Jurkat cells [6])	MFI (CD6 on Jurkat cells [7])	Kd (rhCD6-Fc [8])	EC50 (CD6 on Jurkat cells [9])	koff (rhCD6-Fc [10])	kon (rhCD6-Fc [10])	koff (rhCD6-Fc [11])
Humanized IgG6 (from Fab6) (antibody, V domains shown, Human IgG1 / kappa) VH: QVQLQESGPGLVKPSETLSLTCTVSGFSLSRYSVHWIRQPPGKGLEWIGLIWGGGFTDYNSALKSRVTISKDNSKNQVSLKLSSVTAADTAVYYCAREGVAYWGQGTLVTVSS VL: DVVMTQSPLSLPVTLGQPASISCKSSQSLLNSDGRTYLNWFQQRPGQSPRRLIYLVSKLDSGVPDRFSGSGSGTDFTLKISRVEAEDVGVYYCWQGTHFPFTFGPGTKVDIKR	7.9	14.8	6.68	35.3	44.1	45.2	5.45	0.032 nM	0.197 nM	2.1e-05 s⁻¹	650000 M⁻¹ s⁻¹	
Humanized IgG2 (from Fab2) (antibody, V domains shown, VH2-hIgG1CH and VL-hIgKCL (human IgG1 / kappa)) VH: QVQLQESGPGLVKPSETLSLTCTVSGFSLSRYSVHWVRQPPGKGLEWLGLIWGGGFTDYNSALKSRLTISKDNSKNQVSLKLSSVTAADTAVYYCAREGVAYWGQGTLVTVSS VL: DVVMTQSPLSLPVTLGQPASISCKSSQSLLNSDGRTYLNWFQQRPGQSPRRLIYLVSKLDSGVPDRFSGSGSGTDFTLKISRVEAEDVGVYYCWQGTHFPFTFGPGTKVDIKR	6.8	10.9	6.18	31	45	42.7	5.45	0.042 nM	0.275 nM	1.3e-05 s⁻¹	320000 M⁻¹ s⁻¹	
Humanized IgG4 (from Fab4) (antibody, V domains shown, VH4-hIgG1CH and VL-hIgKCL (human IgG1 / kappa; 'IgG4' is the clone number, not the isotype)) VH: QVQLQESGPGLVKPSETLSLTCTVSGFSISRYSVHWIRQPPGKGLEWIGLIWGGGFTDYNSALKSRVTISKDNSKNQVSLKLSSVTAADTAVYYCAREGVAYWGQGTLVTVSS VL: DVVMTQSPLSLPVTLGQPASISCKSSQSLLNSDGRTYLNWFQQRPGQSPRRLIYLVSKLDSGVPDRFSGSGSGTDFTLKISRVEAEDVGVYYCWQGTHFPFTFGPGTKVDIKR	7.65	15	6.45	37	44.4	46.7	5.45	0.038 nM	0.185 nM	1.3e-05 s⁻¹	350000 M⁻¹ s⁻¹	
Fab2 (Fab, V domains shown, Tested as Fab-SASA secreted into culture medium (pFASEBA vector); also called back-mutation 2; Fab2 clone from CDR grafting) VH: QVQLQESGPGLVKPSETLSLTCTVSGFSLSRYSVHWVRQPPGKGLEWLGLIWGGGFTDYNSALKSRLTISKDNSKNQVSLKLSSVTAADTAVYYCAREGVAYWGQGTLVTVSS VL: DVVMTQSPLSLPVTLGQPASISCKSSQSLLNSDGRTYLNWFQQRPGQSPRRLIYLVSKLDSGVPDRFSGSGSGTDFTLKISRVEAEDVGVYYCWQGTHFPFTFGPGTKVDIK												2.1e-05 s⁻¹
Fab4 (Fab, V domains shown, Tested as Fab-SASA secreted into culture medium; also called back-mutation 4) VH: QVQLQESGPGLVKPSETLSLTCTVSGFSISRYSVHWIRQPPGKGLEWIGLIWGGGFTDYNSALKSRVTISKDNSKNQVSLKLSSVTAADTAVYYCAREGVAYWGQGTLVTVSS VL: DVVMTQSPLSLPVTLGQPASISCKSSQSLLNSDGRTYLNWFQQRPGQSPRRLIYLVSKLDSGVPDRFSGSGSGTDFTLKISRVEAEDVGVYYCWQGTHFPFTFGPGTKVDIK												1.9e-05 s⁻¹
Fab5 (Fab, V domains shown, Tested as Fab-SASA secreted into culture medium; also called Fab5 R; back-mutation 5) VH: QVQLQESGPGLVKPSETLSLTCTVSGGSLSRYSVHWVRQPPGKGLEWLGLIWGGGFTDYNSALKSRLTISVDTSKNQFSLKLSSVTAADTAVYYCAREGVAYWGQGTLVTVSS VL: DVVMTQSPLSLPVTLGQPASISCKSSQSLLNSDGRTYLNWFQQRPGQSPRRLIYLVSKLDSGVPDRFSGSGSGTDFTLKISRVEAEDVGVYYCWQGTHFPFTFGPGTKVDIK												0.00053 s⁻¹ and 0.00056 s⁻¹
Fab6 (Fab, V domains shown, Tested as Fab-SASA secreted into culture medium; also called back-mutation 6) VH: QVQLQESGPGLVKPSETLSLTCTVSGFSLSRYSVHWIRQPPGKGLEWIGLIWGGGFTDYNSALKSRVTISKDNSKNQVSLKLSSVTAADTAVYYCAREGVAYWGQGTLVTVSS VL: DVVMTQSPLSLPVTLGQPASISCKSSQSLLNSDGRTYLNWFQQRPGQSPRRLIYLVSKLDSGVPDRFSGSGSGTDFTLKISRVEAEDVGVYYCWQGTHFPFTFGPGTKVDIK												3.1e-05 s⁻¹
Fab7 (Fab, V domains shown, Tested as Fab-SASA secreted into culture medium; also called back-mutation 7) VH: QVQLQESGPGLVKPSETLSLTCTVSGGSISRYSVHWVRQPPGKGLEWLGLIWGGGFTDYNSALKSRLTISVDTSKNQFSLKLSSVTAADTAVYYCAREGVAYWGQGTLVTVSS VL: DVVMTQSPLSLPVTLGQPASISCKSSQSLLNSDGRTYLNWFQQRPGQSPRRLIYLVSKLDSGVPDRFSGSGSGTDFTLKISRVEAEDVGVYYCWQGTHFPFTFGPGTKVDIK												0.00089 s⁻¹
